Where no end group is shown, it is not given here. [ ]: non-standard residue; d: D form. pS = N[C@@H](COP(=O)(O)O)C(=O)O
B1: IkBa phosphopeptide (IkBa-24pp), LKKERLLDDRHD(p)SGLD(p)SMKDEEYC (peptide)
peptide: LKKERLLDDRHD[pS]GLD[pS]MKDEEYC
modifications: not fully specified (residue 24); also: C-terminal Cys coupled to maleimide-activated BSA
notes: Chemically synthesized; the peptide-BSA conjugate was deposited on the electrode; also called IkBa peptide; IkBa-24ppC
B3: Phospholipase C gamma 1 (PLCγ) (EST clone IMAGE 4419252), in vitro translated, biotin-labelled (enzyme, UniProt P19174 1-1290, looked up)
chain: MAGAASPCANGCGPGAPSDAEVLHLCRSLEVGTVMTLFYSKKSQRPERKTFQVKLETRQITWSRGADKIEGAIDIREIKEIRPGKTSRDFDRYQEDPAFRPDQSHCFVILYGMEFRLKTLSLQATSEDEVNMWIKGLTWLMEDTLQAPTPLQIERWLRKQFYSVDRNREDRISAKDLKNMLSQVNYRVPNMRFLRERLTDLEQRSGDITYGQFAQLYRSLMYSAQKTMDLPFLEASTLRAGERPELCRVSLPEFQQFLLDYQGELWAVDRLQVQEFMLSFLRDPLREIEEPYFFLDEFVTFLFSKENSVWNSQLDAVCPDTMNNPLSHYWISSSHNTYLTGDQFSSESSLEAYARCLRMGCRCIELDCWDGPDGMPVIYHGHTLTTKIKFSDVLHTIKEHAFVASEYPVILSIEDHCSIAQQRNMAQYFKKVLGDTLLTKPVEISADGLPSPNQLKRKILIKHKKLAEGSAYEEVPTSMMYSENDISNSIKNGILYLEDPVNHEWYPHYFVLTSSKIYYSEETSSDQGNEDEEEPKEVSSSTELHSNEKWFHGKLGAGRDGRHIAERLLTEYCIETGAPDGSFLVRESETFVGDYTLSFWRNGKVQHCRIHSRQDAGTPKFFLTDNLVFDSLYDLITHYQQVPLRCNEFEMRLSEPVPQTNAHESKEWYHASLTRAQAEHMLMRVPRDGAFLVRKRNEPNSYAISFRAEGKIKHCRVQQEGQTVMLGNSEFDSLVDLISYYEKHPLYRKMKLRYPINEEALEKIGTAEPDYGALYEGRNPGFYVEANPMPTFKCAVKALFDYKAQREDELTFIKSAIIQNVEKQEGGWWRGDYGGKKQLWFPSNYVEEMVNPVALEPEREHLDENSPLGDLLRGVLDVPACQIAIRPEGKNNRLFVFSISMASVAHWSLDVAADSQEELQDWVKKIREVAQTADARLTEGKIMERRKKIALELSELVVYCRPVPFDEEKIGTERACYRDMSSFPETKAEKYVNKAKGKKFLQYNRLQLSRIYPKGQRLDSSNYDPLPMWICGSQLVALNFQTPDKPMQMNQALFMTGRHCGYVLQPSTMRDEAFDPFDKSSLRGLEPCAISIEVLGARHLPKNGRGIVCPFVEIEVAGAEYDSTKQKTEFVVDNGLNPVWPAKPFHFQISNPEFAFLRFVVYEEDMFSDQNFLAQATFPVKGLKTGYRAVPLKNNYSEDLELASLLIKIDIFPAKENGDLSPFSGTSLRERGSDASGQLFHGRAREGSFESRYQQPFEDFRISQEHLADHFDSRERRAPRRTRVNGDNRL
modifications: biotin on some lysine residues (incorporated at random from biotin-Lys-tRNA)
notes: also called PLCg
B4: Shc1 (EST clone IMAGE 3907115), in vitro translated, biotin-labelled (other, UniProt P29353-2 1-473, looked up)
chain: MNKLSGGGGRRTRVEGGQLGGEEWTRHGSFVNKPTRGWLHPNDKVMGPGVSYLVRYMGCVEVLQSMRALDFNTRTQVTREAISLVCEAVPGAKGATRRRKPCSRPLSSILGRSNLKFAGMPITLTVSTSSLNLMAADCKQIIANHHMQSISFASGGDPDTAEYVAYVAKDPVNQRACHILECPEGLAQDVISTIGQAFELRFKQYLRNPPKLVTPHDRMAGFDGSAWDEEEEEPPDHQYYNDFPGKEPPLGGVVDMRLREGAAPGAARPTAPNAQTPSHLGATLPVGQPVGGDPEVRKQMPPPPPCPGRELFDDPSYVNVQNLDKARQAVGGAGPPNPAINGSAPRDLFDMKPFEDALRVPPPPQSVSMAEQLRGEPWFHGKLSRREAEALLQLNGDFLVRESTTTPGQYVLTGLQSGQPKHLLLVDPEGVVRTKDHRFESVSHLISYHMDNHLPIISAGSELCLQQPVERKL
modifications: biotin on some lysine residues (incorporated at random from biotin-Lys-tRNA)

Key:
[1] = target: B3; assay: ECL plate binding assay, peptide-BSA on electrode
[2] = target: B4; assay: ECL plate binding assay, peptide-BSA on electrode
[3] = target: T1, EGFR-pY992 phosphopeptide, DADE(p)YLIPQQGFFSSPSTSC (phosphotyrosine at (p)Y (residue 5 of the printed peptide; EGFR Tyr992)); assay: ECL 4-spot multi-array binding assay: peptide-BSA spot, biotinylated TnT protein, Sulfo-TAG streptavidin
T1 construct: also called EGFR-pTyr992
T1 peptide: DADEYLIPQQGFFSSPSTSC

[4] = target: T1, EGFR-pY992 phosphopeptide, …; assay: ECL 7-spot plate screen, peptide-BSA spot, biotinylated TnT protein, Ru-streptavidin; signal normalized in two steps
[5] = target: B1; assay: ECL plate binding assay: peptide-BSA on electrode, biotinylated TnT protein, Sulfo-TAG streptavidin
Protocol: (§1) Also included were three other non specific EST clones as controls (Incyte, Palo alto, Calif.). […] Proteins were transferred into wells of the peptide-coated and BSA-blocked IPR plates. Sulfo-TAG labeled streptavidin (50 to 100 ng/well) was added to each well as the detection agent. […] The ECL signals were measured using an imaging plate reader (IPR).

[6] = target: T2, c-Myc phosphopeptide (Myc-p58Tp62S), …(p)TPPL(p)SPSRRSGL (phosphothreonine and phosphoserine in P(p)TPPL(p)S (residues 15 and 19 of the printed peptide)); assay: as above
T2 construct: Chemically synthesized; control peptide; also called c-Myc peptide
T2 sequence (peptide, as listed by the source): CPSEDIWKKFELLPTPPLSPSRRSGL
Protocol: as §1

[7] = target: B1; assay: ECL 4-spot multi-array binding assay: peptide-BSA spot, biotinylated TnT protein, Sulfo-TAG streptavidin

B1
binding result [1]: no binding
binding result [2]: no binding

B2: βTRCP2 (EST clone IMAGE 4237375), in vitro translated, biotin-labelled (other, human, UniProt Q9UKB1 1-542, looked up)
chain: MEPDSVIEDKTIELMCSVPRSLWLGCANLVESMCALSCLQSMPSVRCLQISNGTSSVIVSRKRPSEGNYQKEKDLCIKYFDQWSESDQVEFVEHLISRMCHYQHGHINSYLKPMLQRDFITALPEQGLDHIAENILSYLDARSLCAAELVCKEWQRVISEGMLWKKLIERMVRTDPLWKGLSERRGWDQYLFKNRPTDGPPNSFYRSLYPKIIQDIETIESNWRCGRHNLQRIQCRSENSKGVYCLQYDDEKIISGLRDNSIKIWDKTSLECLKVLTGHTGSVLCLQYDERVIVTGSSDSTVRVWDVNTGEVLNTLIHHNEAVLHLRFSNGLMVTCSKDRSIAVWDMASATDITLRRVLVGHRAAVNVVDFDDKYIVSASGDRTIKVWSTSTCEFVRTLNGHKRGIACLQYRDRLVVSGSSDNTIRLWDIECGACLRVLEGHEELVRCIRFDNKRIVSGAYDGKIKVWDLQAALDPRAPASTLCLRTLVEHSGRVFRLQFDEFQIISSSHDDTILIWDFLNVPPSAQNETRSPSRTYTYISR
modifications: biotin on some lysine residues (incorporated at random from biotin-Lys-tRNA)
notes: Product of a coupled transcription/translation reaction, used without purification; also called βTRCP [c]; bTRCP2
ECL signal [3]: 60 ECL signal
normalized ECL signal [4]: 1

B3
Average ECL signal [5]: 341 ECL signal
Average ECL signal [6]: 316 ECL signal
ECL signal [7]: 26 ECL signal

B4
Average ECL signal [5]: 368 ECL signal
Average ECL signal [6]: 341 ECL signal

B5: βTRCP1 (EST clone IMAGE 3491843), in vitro translated, biotin-labelled (other, human, UniProt Q9Y297 1-605, looked up)
chain: MDPAEAVLQEKALKFMCSMPRSLWLGCSSLADSMPSLRCLYNPGTGALTAFQNSSEREDCNNGEPPRKIIPEKNSLRQTYNSCARLCLNQETVCLASTAMKTENCVAKTKLANGTSSMIVPKQRKLSASYEKEKELCVKYFEQWSESDQVEFVEHLISQMCHYQHGHINSYLKPMLQRDFITALPARGLDHIAENILSYLDAKSLCAAELVCKEWYRVTSDGMLWKKLIERMVRTDSLWRGLAERRGWGQYLFKNKPPDGNAPPNSFYRALYPKIIQDIETIESNWRCGRHSLQRIHCRSETSKGVYCLQYDDQKIVSGLRDNTIKIWDKNTLECKRILTGHTGSVLCLQYDERVIITGSSDSTVRVWDVNTGEMLNTLIHHCEAVLHLRFNNGMMVTCSKDRSIAVWDMASPTDITLRRVLVGHRAAVNVVDFDDKYIVSASGDRTIKVWNTSTCEFVRTLNGHKRGIACLQYRDRLVVSGSSDNTIRLWDIECGACLRVLEGHEELVRCIRFDNKRIVSGAYDGKIKVWDLVAALDPRAPAGTLCLRTLVEHSGRVFRLQFDEFQIVSSSHDDTILIWDFLNDPAAQAEPPRSPSRTYTYISR
modifications: biotin on some lysine residues (incorporated at random from biotin-Lys-tRNA)
notes: Product of a coupled transcription/translation reaction, used without purification; the text speaks of the genes in the human genome and of full-length cDNAs; also called βTRCP [c]; bTRCP1
ECL signal [3]: 54 ECL signal
normalized ECL signal [4]: 1

Reference: patent US20030207290A1 (MESO SCALE TECHNOLOGIES, published 2003)
